According to publication PMC6991139 (ACS nano, 2019):

Experiments:
[1] = target: PP7-ZZ particle (ZZ-domains fused to the C-terminus of the PP7 CP) (PP7 virus (Leviviridae)); assay: SEC + other: dynamic light scattering + other: TEM
[2] = target: ZZ-PP7 particle (ZZ-domains added to the N-terminus of the PP7 CP) (PP7 virus (Leviviridae)); assay: cryo-EM structure
[3] = target: PP7-PP7 single-chain coat protein dimer particle (PP7 virus (Leviviridae)) (UniProt P03630); assay: cryo-EM structure
[4] = target: the molecule itself; assay: SEC + other: dynamic light scattering + other: TEM

PP7-ZZ particle (ZZ-domains fused to the C-terminus of the PP7 CP)
stoichiometry N [1]: 180 per capsid

ZZ-PP7 particle (ZZ-domains added to the N-terminus of the PP7 CP)
stoichiometry N [2]: 180 per capsid

PP7-PP7 single-chain coat protein dimer particle (from UniProt P03630 1-128; P03630 1-128)
stoichiometry N [3]: 120 copies

B1: wild-type PP7 virus-like particle (PP7 coat protein) (natural protein)
chain: MSKTIVLSVGEATRTLTEIQSTADRQIFEEKVGPLVGRLRLTASLRQNGAKTAYRVNLKLDQADVVDCSTSVCGELPKVRYTQVWSHDVTIVANSTEASRKSLYDLTKSLVATSQVEDLVVNLVPLGR
binding result [4]: binds
